Measured values reported in the Immune Epitope Database (IEDB).

Tests used:
[1] = biological target: HLA-A*02:01; assay: IEDB peptide-MHC binding, purified MHC/competitive/radioactivity; ≥ and ≤ were set here for values at or beyond the usual limits of such assays
[2] = biological target: HLA-C*03:03; assay: IEDB peptide-MHC binding, purified MHC/direct/fluorescence; filed as Kd, often an IC50 or EC50 that approximates it; ≥ and ≤ were set here for values at or beyond the usual limits of such assays; settings: source organism: Listeria monocytogenes EGD-e
[3] = biological target: HLA-C*08:02; assay: as above
[4] = biological target: HLA-A*69:01; assay: as above; settings: source organism: Bacillus anthracis
[5] = biological target: HLA-A*03:01; assay: IEDB peptide-MHC binding, purified MHC/competitive/fluorescence; filed as Kd, often an IC50 or EC50 that approximates it; ≥ and ≤ were set here for values at or beyond the usual limits of such assays; settings: source organism: Yersinia pestis Antiqua
[6] = biological target: HLA-B*35:01; assay: as above; settings: source organism: Yersinia pestis Antiqua
[7] = biological target: HLA-A*01:01; assay: as above; settings: source organism: Yersinia pestis Antiqua

## DLNTSAGFPYV
[1]; source organism: Rhinovirus C
  IC50: 500 nM

## FLPDKAIDL
[2]
  Kd: 20 nM
[3]; source organism: Listeria monocytogenes EGD-e
  Kd: 47 nM
[4]
  Kd: 17000 nM

## FVADSTPLY
[5]
  Kd: ≥ 20000 nM
[6]
  Kd: ≤ 0.1 nM
[7]
  Kd: 1.8 nM
[3]; source organism: Yersinia pestis Antiqua
  Kd: ≥ 20000 nM

## RTFSPTYGL
[1]; source organism: Homo sapiens
  IC50: 408 nM

## TVLEYLVSFGV
[1]; source organism: Hepatitis B virus
  IC50: 294 nM
